Here are results for eleven molecules from article PMC8442604 (Frontiers in Immunology, 2021).

B1: REGN10987 (antibody, V domains shown)
VH: QVQLVESGGGVVQPGRSLRLSCAASGFTFSNYAMYWVRQAPGKGLEWVAVISYDGSNKYYADSVKGRFTISRDNSKNTLYLQMNSLRTEDTAVYYCASGSDYGDYLLVYWGQGTLVTVSS
VL: QSALTQPASVSGSPGQSITISCTGTSSDVGGYNYVSWYQQHPGKAPKLMIYDVSKRPSGVSNRFSGSKSGNTASLTISGLQSEDEADYYCNSLTSISTWVFGGGTKLTVL
B2: REGN10933 (antibody, V domains shown)
VH: QVQLVESGGGLVKPGGSLRLSCAASGFTFSDYYMSWIRQAPGKGLEWVSYITYSGSTIYYADSVKGRFTISRDNAKSSLYLQMNSLRAEDTAVYYCARDRGTTMVPFDYWGQGTLVTVSS
VL: DIQMTQSPSSLSASVGDRVTITCQASQDITNYLNWYQQKPGKAPKLLIYAASNLETGVPSRFSGSGSGTDFTFTISGLQPEDIATYYCQQYDNLPLTFGGGTKVEIK
B3: CC12.3 (antibody, V domains shown)
VH: QVQLVESGGGLIQPGGSLRLSCAASGFTVSSNYMSWVRQAPGKGLEWVSVIYSGGSTFYADSVKGRFTISRDNSKSTLYLQMNSLRVEDTAVYYCARDFGDFYFDYWGQGTLVTVSS
VL: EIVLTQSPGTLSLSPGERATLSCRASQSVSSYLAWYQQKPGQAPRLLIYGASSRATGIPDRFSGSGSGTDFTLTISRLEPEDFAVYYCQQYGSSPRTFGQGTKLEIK
B4: 4A8 (antibody, V domains shown)
VH: EVQLVESGAEVKKPGASVKVSCKVSGYTLTELSMHWVRQAPGKGLEWMGGFDPEDGETMYAQKFQGRVTMTEDTSTDTAYMELSSLRSEDTAVYYCATSTAVAGTPDLFDYYYGMDVWGQGTTVTVSS
VL: EIVMTQSPLSSPVTLGQPASISCRSSQSLVHSDGNTYLSWLQQRPGQPPRLLIYKISNRFSGVPDRFSGSGAGTDFTLKISRVEAEDVGVYYCTQATQFPYTFGQGTKVDIK
B5: 2-4 (antibody, V domains shown)
VH: QVQLVQSGAEVKKPGASVKVSCKASGYTFTGYYMHWVRQAPGQGLEWMGWINPNSGGTNYTQMFQGRVTMTRDTSISTAYMEVSRLRSDDTAVYYCARDRSWAVVYYYMDVWGKGTTVTVSS
VL: QSALTQPPSASGSPGQSVTISCTGTSSDVGGYNYVSWYQQHPGKAPKLMIYEVSKRPSGVPDRFSGSKSGNTASLTVSGLQAEDEADYYCSSYAGSNNLVFGGGTKLTVL
B6: B38 (antibody, V domains shown)
VH: EVQLVESGGGLVQPGGSLRLSCAASGFIVSSNYMSWVRQAPGKGLEWVSVIYSGGSTYYADSVKGRFTISRHNSKNTLYLQMNSLRAEDTAVYYCAREAYGMDVWGQGTTVTVSS
VL: DIVMTQSPSFLSASVGDRVTITCRASQGISSYLAWYQQKPGKAPKLLIYAASTLQSGVPSRFSGSGSGTEFTLTISSLQPEDFATYYCQQLNSYPPYTFGQGTKLEIK
B7: C105 (antibody, V domains shown)
VH: QVQLVESGGGLIQPGGSLRLSCAASGFTVSSNYMSWVRQAPGKGLEWVSVIYSGGSTYYADSVKGRFTISRDNSKNTLYLQMNSLRAEDTAVYYCARGEGWELPYDYWGQGTLVTVSS
VL: QSALTQPPSASGSPGQSVTISCTGTSSDVGGYKYVSWYQQHPGKAPKLMIYEVSKRPSGVPDRFSGSKSGNTASLTVSGLQAEDEADYYCSSYEGSNNFVVFGGGTKLTVL
B8: EY6A (antibody, V domains shown)
VH: EVQLVESGGGVVQPGRSLRLSCAASAFTFSSYDMHWVRQAPGKGLEWVAVISYDGSNKYYADSVKGRFTISRDNSKNTLYLQMNSLRAEDTAVYYCAKDGGKLWVYYFDYWGQGTLVTVSS
VL: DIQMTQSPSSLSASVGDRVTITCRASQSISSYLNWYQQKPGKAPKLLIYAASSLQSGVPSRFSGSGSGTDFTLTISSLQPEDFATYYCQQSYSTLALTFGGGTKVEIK
B9: LCA60 (antibody, V domains shown)
VH: EVQLLESGGGLVKPGGSLRLSCEASGLTFSNVWMSWVRQAPGKGLEWVGRIKRKSEGATTDYGAPVKGRFTLSRDDSKNTVYLQMNSLKIDDTAVYYCSTLTRGGDVWSSSYYFDYWGQGALVTVSS
VL: QSALTQPASVSGSPGQSITISCTGTSSDVGTYDLVSWYQQHPGKSPKLMIYADIKRPSGVSHRFSGSKSGNTASLTISGLQSADEADYYCCLYAGSSTSVIFGGGTKVT
notes: also called MERS nAb LCA60
B10: CB6H-XG83L (antibody, V domains shown)
VH: EVQLVESGGGLVQPGGSLRLSCAASGFTVSSNYMSWVRQAPGKGLEWVSVIYSGGSTFYADSVKGRFTISRDNSMNTLFLQMNSLRAEDTAVYYCARVLPMYGDYLDYWGQGTLVTVSS
VL: QSVLTQPPSVSGAPGQRVTISCTGSSSNIGAGYDVHWYQQLPGTAPKLLIYGDSNRPSGVPDRFSGSKSGTSASLAITGLQAEDEADFYCQSYDSSLSTSIFGGGTKLTVL
B11: CB6 (antibody, V domains shown)
VH: B10 VH
VL: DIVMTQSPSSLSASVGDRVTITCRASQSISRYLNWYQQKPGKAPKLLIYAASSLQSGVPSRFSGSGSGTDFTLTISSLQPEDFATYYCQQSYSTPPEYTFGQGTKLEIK

The target of the first test is T1, SARS-CoV-2 RBD protein (321–591) (SARS-CoV-2, Wuhan-Hu-1 (MN908947), UniProt P0DTC2). Nature of the test: ELISA. To be noted: one partner purified. A general note: ELISA stands for enzyme-linked immunosorbent assay.
B1: the binding result is reported as “binds”.

As to B2, the binding result is listed as “binds”.

With B3, the binding result is listed as “binds”.

On to B4, for which the binding result is recorded as “no binding”.

On to B5, for which the binding result is on record as “binds”.

Take B6: the binding result is “binds”.

For B7, the binding result is given as “binds”.

Consider B8, for which the binding result is reported as “binds”.

Regarding B9, the binding result is “no binding”.

For another test, the target named is T1, SARS-CoV-2 RBD protein (321–591). Description: cell-based or functional assay.
Conditions: not given
Turning to B10, the “IC50 of neutralisation of authentic SARS-CoV-2 on Vero E6 cells (CPE assay)” value was determined as 1.1 µg/mL.

For the next test the target is unchanged. Description: SPR. The settings on record: both partners purified.
Usually Kd stands for the constant that tells how readily two partners part at equilibrium. A low value points to higher affinity. B10 yielded a Kd of 0.58 nM.

B11: the affinity, expressed as Kd, was 43.8 nM.
